Measurements from patent publication US11987606.

Legend:
[1] = biological target: T cell receptor of Ova-specific CD8+ T cells (OT-I), on OT-I cells (mouse); assay: cell-based or functional assay
[2] = biological target: T cell receptor of Ova-specific CD8+ T cells (OT-I), on OT-I cells (mouse); assay: flow cytometry; His-tagged protein pre-mixed with PE-labeled α-His mAb, incubated with OT-I cells at 37° C. for 5 hours

Kb(Ova)/ANXA5 carrying a His tag (peptide-MHC)
TCR Vα2 expression downregulated, percent of OT-I cells, compared to the α-His/PE control (flow cytometry) [1]: 90% | mean fluorescence shift relative to the unstained control [2]: 100 fold | percent of OT-I cells pMHC+ (PE fluorescence) [2]: 98%
